Changes are numbered by the printed parent chain.
Key:
cynomolgus PD1 = biological target: T1, cynomolgus PD1 (cynomolgus, UniProt B0LAJ3 25-170); experiment: ELISA, cynomolgus PD1 coated, anti-human IgG-HRP detection
T1 construct: Recombinant protein for ELISA; also called cynomolgus PD1 protein
Method: (§1) To evaluate PD1 binding activity of the test bispecific antibodies, human PD1 and cynomolgus PD1 diluted in PBS were coated on a microplate respectively at 4° C. overnight. Three-fold dilution of test antibodies starting from 100 nM were added to each well and incubated for 1 hours at 25° C. Then, the plates were washed with ELISA washing buffer (1×DPBS with 0.5% Tween-20) and incubated with peroxidase conjugated anti-human IgG secondary antibody for 60 minutes at 25° C. After washed four times with ELISA washing buffer, the plates were detected by TMB-ELISA substrate solution, then stopped by ELISA stopping solution and analyzed by microplate reader at OD450 nm.

[1] = biological target: T2, human PD-1 overexpressed on cells (human, UniProt Q15116 25-288); experiment: cell-based or functional assay
T2 sequence (Q15116 25-288): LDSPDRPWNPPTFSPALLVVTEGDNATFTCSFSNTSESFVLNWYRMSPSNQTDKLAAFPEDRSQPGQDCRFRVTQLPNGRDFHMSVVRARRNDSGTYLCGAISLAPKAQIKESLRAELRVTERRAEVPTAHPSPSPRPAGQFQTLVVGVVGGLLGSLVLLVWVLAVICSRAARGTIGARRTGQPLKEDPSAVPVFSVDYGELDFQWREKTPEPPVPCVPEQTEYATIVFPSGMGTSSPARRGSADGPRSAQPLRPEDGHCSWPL

human PD1 = biological target: T3, human PD1 (human, UniProt Q15116 25-167, limits assumed); experiment: ELISA, human PD1 coated, anti-human IgG-HRP detection
T3 construct: Recombinant protein for ELISA; also called human PD1 protein
T3 sequence (Q15116 25-167 limits assumed): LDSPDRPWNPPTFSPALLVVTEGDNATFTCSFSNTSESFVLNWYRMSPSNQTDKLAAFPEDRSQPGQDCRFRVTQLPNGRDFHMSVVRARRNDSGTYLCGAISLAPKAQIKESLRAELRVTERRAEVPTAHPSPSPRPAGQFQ
Method: as §1

[2] = biological target: T2, human PD-1 overexpressed on cells; experiment: flow cytometry on CHO-K1 cells overexpressing human PD-1; column headed OD450 but the text says MFI of PE; set-up: unit not given here
Method: (§2) To further determine PD-1 binding activity of the bispecific antibodies, CHO-K1 cells overexpressing human PD-1 were incubated with different concentrations of anti-PD1-VEGF bispecific antibodies and reference antibodies at 4° C. for 30 minutes. Then, the cells were washed twice with FACS buffer and stained with PE conjugated secondary antibody at 4° C. for 30 minutes. After wash twice with FACS buffer, MFI of PE was analyzed by a NovoCyte flow cytometer.

[3] = biological target: T2, human PD-1 overexpressed on cells; experiment: flow cytometry on CHO-K1 cells overexpressing human PD-1, PE secondary antibody
Method: as §2

T1 sequence (B0LAJ3 entry or part of it limits assumed, form in doubt): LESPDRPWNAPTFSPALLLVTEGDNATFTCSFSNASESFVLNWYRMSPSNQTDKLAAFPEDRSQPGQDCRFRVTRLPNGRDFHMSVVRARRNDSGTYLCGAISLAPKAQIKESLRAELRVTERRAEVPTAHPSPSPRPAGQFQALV

B1: VH18 (anti-PD-1 VHH) (VHH)
VHH: EVQLVESGGGLVQPGGSLRLSCAVSGNIYNRNFMGWFRQAPGKGREGVSAIYTGTSRTYYADSVKGRFTISRDNAKNTVYLQMNSLRPEDTAVYYCAADLRDGFWDTGVWNTWGQGTLVTVSS
notes: also called VH18 VHH; anti-PD1 parental antibody VH18
With B1 the EC50 (cynomolgus PD1) was 0.151 nM, the “Top (OD450)” value (cynomolgus PD1) was 1.56 OD450 and the “EC50 (nM), PD1 blocking activity (PD1 reporter gene assay)” value [1] was 11.2 nM. The “Top (RLU), PD1 blocking activity (PD1 reporter gene assay)” value [1] was 191000 RLU, the EC50 (human PD1) was 0.083 nM and the “Top (OD450)” value (human PD1) was 1.75 OD450. For the same binder, the “Top (OD450)” value [2] was 963000 and the EC50 [3] was 2.35 nM.

B2: VH8M1 (anti-PD-1 VHH) (VHH)
VHH: B1 VHH with R45L, A75S, P88A, D102E
notes: also called VH8M1 VHH; anti-PD-1 parental nanobody
B2 was tested, and the “EC50 (nM), PD1 blocking activity (PD1 reporter gene assay)” value [1] was 13.3 nM, the “Top (RLU), PD1 blocking activity (PD1 reporter gene assay)” value [1] was 201000 RLU and the “Top (OD450)” value [2] was 448000. For the same binder, the EC50 [3] was 0.759 nM.

B3: Pembrolizumab (antibody, V domains shown)
VH: QVQLVQSGVEVKKPGASVKVSCKASGYTFTNYYMYWVRQAPGQGLEWMGGINPSNGGTNFNEKFKNRVTLTTDSSTTTAYMELKSLQFDDTAVYYCARRDYRFDMGFDYWGQGTTVTVSS
VL: EIVLTQSPATLSLSPGERATLSCRASKGVSTSGYSYLHWYQQKPGQAPRLLIYLASYLESGVPARFSGSGSGTDFTLTISSLEPEDFAVYYCQHSRDLPLTFGGGTKVEIKR
B3 was tested, and the EC50 (cynomolgus PD1) was 0.057 nM and the “Top (OD450)” value (cynomolgus PD1) was 1.17 OD450.

From patent publication US20250019442A1 (LANOVA MEDICINES, published 2025)
